The values below come from paper PMC7089970, “Structural insights into catalytic mechanism and product delivery of cyanobacterial acyl-acyl carrier protein reductase” (Nature Communications, 2020).

Where a chain is given by its changes, count along the chain named. Names may count otherwise. “And” between values parts separate entries of the source, which are not always exact repeats. Equal entries are not always repeated. “Also recorded” adds a separate entry of the source. Where two headings read alike, the source gives them in different places.

A short description of assay [1]: Enzymatic activity assay of AAR toward stearoyl-CoA (octadecanal by GC-MS). The format is biochemical, Synechococcus elongatus PCC 7942. The text has this: PCC 6803 and Synechocystis sp. […] The extraction step was repeated for three times.
The conditions of assay [2]: ITC; for Kd: read-out: KD value, binding with stearoyl-CoA, presence of potassium ion (+K+, 200 mM KCl), N.D. = not detected; for binding of AAR mutant with stearoyl-CoA (in words): +K+. In general terms: Isothermal titration calorimetry measures the heat released or taken up as one component is titrated into another.
Description: The binding affinity of AAR with ADO or stearoyl-CoA was measured by isotheral titration calorimetry (ITC) using a MicroCal Auto-ITC200 microcalorimeter (GE Healthcare Bio-sciences, Pittsburgh, PA). […] Wild type or mutants of ADO (or AAR) were placed into the sample cell (200 µL working volume) at a final concentration of 30 µM (60 µM for AAR) and was titrated with successive 2-µL injections of AAR protein with concentration of 500 µM (or ADO protein with concentration of 1 mM). Titrating AAR (500 µM) or ADO (1 mM) into the same buffer was performed as a control to determine the background correction. […] Injection of stearyol-CoA into the reaction buffer was performed as control to determine background correction.
The conditions of assay [3]: for heptadecane product yield of wild-type ADO compared with triple mutant E196A/E200A/D201A of ADO: both incubated with AAR.
Description: For measuring the enzymatic activity of AAR, the AAR protein at the concentration of 20 µM was mixed with 2 mM NADPH and 0.5 mM stearoyl-CoA in a 100 µL reaction buffer containing 20 mM HEPES pH 7.5, 200 mM KCl, 0.5 mM MgCl2, and 0.5 mM TCEP. […] The ferrodoxin and FNR are recombinant proteins from cyanobacterial strains Synechocystis sp. […] PCC 7942, respectively, and were added into the reaction buffer for supplying electrons for the reduction of ADO. The mixture was incubated at 30 °C for 5 h. The produced octadecanal and heptadecane were extracted by addition of an equal volume of ethyl acetate (Sigma Aldrich, HPLC grade) and centrifuged at 13,000 × g for 15 min at room temperature. The extraction step was repeated for three times. The extracted supernatant was pooled together, dried with nitrogen gas, and then resolved in 20 µL ethyl acetate for the GC-MS measurement.
The concentration of octadecanal and heptadecane was measured using an Agilent 7890 A gas chromatograph coupled with an Agilent 7000B QQQ mass spectrometer. A total of 2 µL sample was loaded with the helium as the carrier gas onto the chromatographic column HP-5ms (30 mM × 0.25 mM ID, 0.25 μm; Agilent) at the flow rate of 1.3 ml min^−1. The injector temperature maintained at 300 °C with spotless mode. The GC oven settings were as follows: initial temperature 75 °C, held for 5 min, then at 40 °C min^−1, increased to 325 °C and held for 5 min. Ionization mode of EI (70 eV, 230 °C) and full scan of 50–550 m/z were chosen for MS detection. The standard curve was plotted based on the measuring of the commercial octadecanal and heptadecane (Sigma Aldrich) at a gradient concentration (from 3.125 to 75 µg mL^−1). Data were acquired and processed using MassHunter Workstation Software and the NIST database.
In assay [4] the target is T1, aldehyde-deformylating oxygenase from Synechococcus elongatus PCC 7942, wild type, His-tag removed (Synechococcus elongatus PCC 7942, UniProt Q54764 1-231).
T1 chain: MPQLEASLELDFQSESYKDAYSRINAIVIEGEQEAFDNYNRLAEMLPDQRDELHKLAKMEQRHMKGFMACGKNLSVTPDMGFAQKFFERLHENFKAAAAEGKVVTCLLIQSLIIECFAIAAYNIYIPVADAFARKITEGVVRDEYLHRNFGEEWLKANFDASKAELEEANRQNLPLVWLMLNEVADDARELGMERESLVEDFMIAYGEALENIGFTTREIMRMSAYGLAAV
Put plainly: ITC.

For the next assay, the target named is T2, ADO (Synechococcus elongatus, UniProt Q54764).
T2 construct: His6-tag peptide (C, cleaved yes); made in house; host or cells: E. coli BL21(DE3), without chaperone plasmid
T2 sequence (Q54764 1-231): T1 chain
Kind of assay: ITC binding of AAR (wild type and mutants) with ADO. Set-up: species or system Synechococcus elongatus PCC 7942.

In assay [5] the target is T3, acyl-acyl carrier protein (acyl-ACP) reductase from Synechococcus elongatus PCC 7942, wild type, His-tag … (Synechococcus elongatus PCC 7942, UniProt Q54765 1-341).
T3 construct: acyl-ACP reductase (AAR), Synechococcus elongatus PCC 7942, gene Synpcc7942_1594; complete protein of 341 residues; after TEV cleavage ENLYFQ probably stays at the C-terminus (surmised); also called AAR; SeAAR; not shown: His6, C-terminal, cleaved
T3 sequence (looked up): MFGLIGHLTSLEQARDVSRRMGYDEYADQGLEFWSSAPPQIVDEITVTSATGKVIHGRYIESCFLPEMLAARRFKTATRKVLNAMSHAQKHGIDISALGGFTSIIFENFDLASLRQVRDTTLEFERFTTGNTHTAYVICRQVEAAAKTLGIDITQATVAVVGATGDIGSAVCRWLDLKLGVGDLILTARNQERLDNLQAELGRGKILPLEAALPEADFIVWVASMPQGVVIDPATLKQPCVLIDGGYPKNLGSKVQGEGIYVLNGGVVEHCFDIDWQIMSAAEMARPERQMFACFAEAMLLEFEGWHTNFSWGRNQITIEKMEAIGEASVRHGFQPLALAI
Kind of assay: ITC; ADO (wild type or mutant) in the sample cell at 30 µM, titrated with 2-µL injections of 500 µM AAR; 25 mM Tris-HCl pH 7.5, 1 mM TCEP. To be noted: both partners purified.

Another assay concerns the target T4, AAR (Synechococcus elongatus, UniProt Q54765).
T4 construct: modeled the complete AAR protein containing 341 amino acid residues; 22-residue C-terminal peptide with His6 (G + […]) (C, cleaved yes); made in house; host or cells: E. coli BL21(DE3) co-transformed with chaperone plasmid pG-KJE8
T4 sequence (Q54765 1-341): T3 sequence (looked up)
Kind of assay: ITC binding of ADO (wild type and mutants) with AAR. Details: species or system Synechococcus elongatus PCC 7942.

A word on the Kd: it is a measure of binding affinity in units of concentration. Take “AAR wild type: acyl-acyl carrier protein reductase from Synechococcus elongatus PCC 7942, wild type recombinant protein”: the “Octadecanal yield, single data (data1-data3)” value in assay [1] is 5.8 and 7.04 and 5.2. The “binding between AAR and stearoyl-CoA for AAR incubated with NADPH (in words)” value in assay [2] is “not significantly affected by NADPH”. Besides, the figures for the Kd in assay [2] (listed as AAR) and in assay [2] (listed as apo-AAR) were 90 nM and about 90 nM, respectively.
In the case of “ADO wild type: aldehyde-deformylating oxygenase from Synechococcus elongatus PCC 7942, wild type recombinant protein”, the “heptadecane product yield of wild-type ADO compared with triple mutant E196A/E200A/D201A of ADO” value was “more than twice” in assay [3] (listed as wild type ADO) and “two times more product” in assay [3] (listed as wild-type ADO).

B1: acyl-acyl carrier protein (acyl-ACP) reductase from Synechococcus elongatus PCC 7942, wild type, His-tag removed (enzyme)
chain: T3 sequence (looked up)
As for B1, in assay [4], the Ka turned out to be 496000 M⁻¹.

B2: AAR R73A (protein)
chain: T3 sequence (looked up) with R73A
modifications: left off: His6, C-terminal, cleaved
With B2, in the assay with ADO, the “binding of AAR mutant with ADO (in words)” value is “abolish the binding capability with ADO”.

B3: AAR K80A (protein)
chain: T3 sequence (looked up) with K80A
modifications: left off: His6, C-terminal, cleaved
Regarding B3, the “binding of AAR mutant with ADO (in words)” value with ADO is “abolish the binding capability with ADO”.

B4: AAR R79A (protein)
chain: T3 sequence (looked up) with R79A
modifications: left off: His6, C-terminal, cleaved
Regarding B4, the “binding of AAR mutant with ADO (in words)” value in the assay with ADO is “abolish the binding capability with ADO”.

B5: AAR Y247F: AAR single mutant Y247F (protein)
chain: T3 sequence (looked up) with Y247F
modifications: left off: His6, C-terminal, cleaved
On to B5, for which, in the assay with ADO, the “binding of AAR mutant with ADO (in words)” value was “almost the same as that of AAR wild type”. In addition, the Octadecanal yield in assay [1] is 61.1 ± 6.76 µg/mL. In assay [1] (source data of Table 3, +K+), the “Octadecanal yield, EVERAGE” value came to 61.0928; the “Octadecanal yield, single data (data1-data4)” value is 68.55 and 59.38 and 55.3483. Besides, the “binding of AAR mutant with stearoyl-CoA (in words)” value in assay [2] is recorded as “decreased binding affinity”. Besides, in assay [2] (listed as Y247F mutant), the “binding of AAR mutant with stearoyl-CoA (in words)” value is “reduced binding affinity with stearoyl-CoA”.

B6: aldehyde-deformylating oxygenase from Synechococcus elongatus PCC 7942, D201A mutant (enzyme, UniProt Q54764 1-231, looked up)
chain: T1 chain with D201A
notes: aldehyde-deformylating oxygenase (ADO), Synechococcus elongatus PCC 7942, gene Synpcc7942_1593; Made by PCR on pET24a-ADO; also called ADO D201A; source: E. coli BL21(DE3), purified (same protocol as wild-type ADO); not shown: His6, C-terminal, cleaved
B6 displayed a Kd in assay [5] of 4900 ± 1400 nM.

B7: ADO E200A/D201A (protein)
chain: T1 chain with E200A, D201A
modifications: left off: His6, C-terminal, cleaved
As for B7, the “binding of ADO mutant with AAR (in words)” value (“binding of ADO mutant” below) in the assay with AAR is “completely lose their capability to bind AAR; also recorded: completely abolished the capability of ADO to bind with AAR”.

B8: ADO E196A/E200A/D201A (protein)
chain: T1 chain with E196A, E200A, D201A
modifications: left off: His6, C-terminal, cleaved
For B8, the “binding of ADO mutant” value in the assay with AAR is on record as “completely lose their capability to bind AAR; also recorded: completely abolished the capability of ADO to bind with AAR”. Moreover, the “yield of octadecanal compared with the wild type ADO reaction system (in words)” value in assay [3] (AAR incubated with wild type or triple mutant ADO) was “similar”.

B9: ADO E196A (protein)
chain: T1 chain with E196A
modifications: left off: His6, C-terminal, cleaved
Regarding B9, in the assay with AAR, the “binding of ADO mutant” value is “significantly reduced binding affinity with AAR”.

B10: ADO E200A (protein)
chain: T1 chain with E200A
modifications: left off: His6, C-terminal, cleaved
Consider B10, for which the “binding of ADO mutant” value in the assay with AAR is recorded as “significantly reduced binding affinity with AAR”.

B11: aldehyde-deformylating oxygenase from Synechococcus elongatus PCC 7942, E208A mutant (enzyme, UniProt Q54764 1-231, looked up)
chain: T1 chain with E208A
notes: aldehyde-deformylating oxygenase (ADO), Synechococcus elongatus PCC 7942, gene Synpcc7942_1593; Made by PCR on pET24a-ADO; also called ADO E208A; source: E. coli BL21(DE3), purified (same protocol as wild-type ADO); not shown: His6, C-terminal, cleaved
Molecule B11 gave a Kd in assay [5] of 14800 ± 3700 nM.

B12: aldehyde-deformylating oxygenase from Synechococcus elongatus PCC 7942, E211A mutant (enzyme, UniProt Q54764 1-231, looked up)
chain: T1 chain with E211A
notes: aldehyde-deformylating oxygenase (ADO), Synechococcus elongatus PCC 7942, gene Synpcc7942_1593; Made by PCR on pET24a-ADO; also called ADO E211A; source: E. coli BL21(DE3), purified (same protocol as wild-type ADO); not shown: His6, C-terminal, cleaved
B12: in assay [5], the Kd was found to be 2800 ± 850 nM.
